According to article PMC3621891, “Structural Insights into Omega-Class Glutathione Transferases: A Snapshot of Enzyme Reduction and Identification of a Non-Catalytic Ligandin Site” (PLoS ONE, 2013):

Target: the molecule itself
Experiment: crystal structure; hanging-drop vapour diffusion at 4°C, 2.2 M ammonium sulfate, 100 mM sodium acetate pH 4.25 and 4.75; crystals soaked with 4NPG (one also with GSH); one protomer in the asymmetric unit, dimer by crystallographic two-fold

B1: hGSTO1-1 C32A mutant (human omega-class glutathione transferase 1-1, active-site mutant) (enzyme)
chain: MSGESARSLGKGSAPPGPVPEGSIRIYSMRFAPFAERTRLVLKAKGIRHEVININLKNKPEWFFKKNPFGLVPVLENSQGQLIYESAITCEYLDEAYPGKKLLPDDPYEKACQKMILELFSKVPSLVGSFIRSQNKEDYAGLKEEFRKEFTKLEEVLTNKKTTFFGGNSISMIDYLIWPWFERLEAMKLNECVDHTPKLKLWMAAMKEDPTVSALLTSEKDWQGFLELYLQNSPEACDYGL
notes: human glutathione transferase omega 1 (hGSTO1), C32A active-site mutant; after cleavage no additional N-terminal residues; residues 4 to 241 are seen in the final model; Homodimer; the dimer is produced by two-fold crystallographic symmetry (one protomer in the asymmetric unit); Crystals held GSSG, 4NPG, DTT and sulfate; source: E. coli BL21 (DE3), purified (Ni-NTA agarose, cleavage by …)
binding result: binds
